The source of these data is article PMC9243173.

For the experiment, the target named is 3HA-3FLAG-CIAO3-C190S/C395S (human) (UniProt Q9H6Q4). In words: affinity purification with mass spectrometry; anti-HA beads on lysates of Flp-In 293 cells expressing the 3HA-3FLAG-tagged bait (NUBP2, wildtype or mutant CIAO3); targeted proteomics assay (parallel reaction monitoring) of CIA components and substrates; CIAO3 purifications normalised to CIAO3; wildtype CIAO3 cells also treated with FAC or DFO for 8 h.
Sequence of 3HA-3FLAG-CIAO3-C190S/C395S (human) (Q9H6Q4 whole entry C190S/C395S): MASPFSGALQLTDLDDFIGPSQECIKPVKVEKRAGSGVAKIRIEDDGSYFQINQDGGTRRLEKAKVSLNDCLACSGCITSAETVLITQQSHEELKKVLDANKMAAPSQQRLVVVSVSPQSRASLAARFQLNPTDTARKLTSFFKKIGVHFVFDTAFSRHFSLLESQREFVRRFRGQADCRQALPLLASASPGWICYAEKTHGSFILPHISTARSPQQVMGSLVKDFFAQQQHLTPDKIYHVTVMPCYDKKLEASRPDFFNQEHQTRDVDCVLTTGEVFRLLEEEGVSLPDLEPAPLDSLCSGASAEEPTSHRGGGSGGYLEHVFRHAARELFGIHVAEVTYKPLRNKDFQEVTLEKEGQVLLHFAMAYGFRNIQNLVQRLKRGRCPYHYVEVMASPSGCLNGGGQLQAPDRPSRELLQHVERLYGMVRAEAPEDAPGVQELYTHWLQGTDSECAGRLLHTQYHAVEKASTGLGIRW

The CIA targeting complex yielded a fold decrease against wildtype CIAO3 of 3 to 4 fold.
